Biological target: Adhesion G Protein-coupled Receptor E2 (ADGRE2), overexpressed on murine lymphoma EL4 cells (human) (UniProt Q9UHX3)
Assay: flow cytometry, scFv titrated on EL4 cells overexpressing ADGRE2

UniProt Q9UHX3, sequence (Q9UHX3 24-823): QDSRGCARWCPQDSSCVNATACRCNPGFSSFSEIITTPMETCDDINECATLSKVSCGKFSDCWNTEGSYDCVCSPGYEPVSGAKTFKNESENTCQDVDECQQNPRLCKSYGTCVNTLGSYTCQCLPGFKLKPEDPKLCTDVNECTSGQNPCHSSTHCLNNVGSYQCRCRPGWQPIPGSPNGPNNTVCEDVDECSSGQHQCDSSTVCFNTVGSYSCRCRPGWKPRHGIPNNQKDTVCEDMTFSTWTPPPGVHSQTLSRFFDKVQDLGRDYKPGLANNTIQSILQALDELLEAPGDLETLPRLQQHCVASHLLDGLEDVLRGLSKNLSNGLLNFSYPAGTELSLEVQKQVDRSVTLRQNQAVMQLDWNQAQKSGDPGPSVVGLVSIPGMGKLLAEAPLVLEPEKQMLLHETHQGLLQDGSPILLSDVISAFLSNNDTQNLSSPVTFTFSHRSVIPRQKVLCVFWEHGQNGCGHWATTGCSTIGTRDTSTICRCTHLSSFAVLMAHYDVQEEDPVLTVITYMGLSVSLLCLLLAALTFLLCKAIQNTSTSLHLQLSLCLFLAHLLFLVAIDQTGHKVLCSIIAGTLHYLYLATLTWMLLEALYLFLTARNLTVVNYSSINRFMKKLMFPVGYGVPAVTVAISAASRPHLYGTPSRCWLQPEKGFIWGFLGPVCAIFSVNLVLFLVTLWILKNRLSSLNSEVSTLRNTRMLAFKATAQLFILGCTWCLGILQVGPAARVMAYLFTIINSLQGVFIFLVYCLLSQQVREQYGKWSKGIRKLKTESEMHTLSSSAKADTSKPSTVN

EC50 [nM] | Binder
10.6 | anti-ADGRE2 scFv E (scFv, part only; not given: VH-VL linker, V domains shown, not shown: another chain or arm of the molecule; small tags and cut ends) VH: QVQLQQSGAEVKKPGASVKVSCKASGYTFTNYWMQWVRQAPGQGLEWIGAVYPGDGDTRHTQKFKGRVTMTADKSTSTVYMELSSLRSEDTAVYYCARGFTAYGMDYWGQGTLVTVSS VL: QIVLTQSPATLSLSPGERATLTCSASSSVSYMHWYQQKPGLSPKRWIYDTSKLASGVPDRFSGSGSGTDYTFTIRRLEPEDFATYYCQQWSSNPLTFGQGTKVEIK
16.4 | anti-ADGRE2 scFv M (scFv, part only; not given: VH-VL linker, V domains shown, not shown: another chain or arm of the molecule; small tags and cut ends) VH: QVQLQQSGAEVKKPGASVKLSCKASGYTFTNYWMQWIRQAPGQGLEWIGAVYPGDGDTRYTQKFQGRATLTADTSTSTAYMEVSSLRSEDTAVYYCARGFTAYGMDYWGQGTTVTVSS VL: EIVLTQSPATLSASPGERVTMSCSASSSVSYMHWYQQKPGLAPRRWIYDTSKLASGVPDRFSGSGSGTDYTFTISRMEPEDFATYYCQQWSSNPLTFGGGTKLEIK

Source: patent US20230018888A1
